The target in one data set is cathepsin B (Homo sapiens, UniProt P07858). Briefly: Cathepsin B-responsive fluorescence activation. The class given is biochemical. To be noted: 1 μM, cathepsin B only (1 unit mL-1), pH 5.0 buffer, 0.1% Tween 80, 37 °C. Here is the method: To examine the response of PMB 1 toward MMP-2 and cathepsin B, its absorption and fluorescence spectra were monitored in the presence of these stimuli at 37 °C over a period of 25 h, using the non-cleavable analogue 14 as the negative control. For studying the MMP-2-responsive effect, MMP-2 (2 μg mL^–1) in PBS at pH 7.4 was used to mimic the high serum levels of this enzyme in patients with cancer.[68] The effect of cathepsin B (using a concentration of 1 unit mL^–1) was studied in the working buffer mentioned above at pH 5.0 to mimic the lysosomal environment.[69] […] Similar results were obtained for the study using cathepsin B in the buffer (Figure S8e–h). […] The more flexible ring-opening structure, however, might slightly increase the separation of the two moieties, leading to a lower FRET efficiency,[70] which could explain the small increase in fluorescence intensity. […] As expected, both the absorption and fluorescence spectra were not changed toward these two enzymes (Figure S9).
The fluorescence recovery was then determined for 1 under the aforementioned conditions, assuming that the fluorescence intensity of 8 at the same concentration in the same medium was the maximum fluorescence intensity that could be recovered. […]
All of the solutions were stirred continuously at 37 °C. The ir electronic absorption and fluorescence spectra were monitored over a period of 25 h. […]

A further data set relates to skin of nude mice. As to the kind of experiment: In vivo photodynamic effect on skin. The following applies: intravenous 20 nmol.
[1] abbreviates: with laser irradiation (680 nm, 0.3 W cm-2, 10 min), 24 h after.

Method for skin of nude mice: The mice were first intravenously injected with either 1 or 6 (20 nmol) in 200 μL of distilled water containing 3% DMSO and 0.5% Tween 80 (v/v). The whole-body fluorescence images of the mice were monitored using an infrared imaging system over a period of 24 h.
At 6 h post-injection of 1 or 6, the mice were irradiated with the aforementioned laser source (680 nm, 0.3 W cm^–2) on a region of the skin (marked in Figure 8d) for 10 min, which were the conditions used for in vivo PDT as described above. The appearance of the irradiated region was then examined after 24 h. […] The skin tissues of these mice were then harvested and examined using the TUNEL assay.
Further evidence was obtained by the H&E staining of these skin tissues.
Female Balb/c nude mice (20–25 g) were injected with a solution of 1 or 6 (20 nmol) in 200
μL of distilled water containing 3% DMSO and 0.5% Tween 80 (v/v) through the tail vein.
vivo fluorescence imaging was performed before and after the injection at different time points
up to 24 h with an Odyssey infrared imaging system (excitation wavelength = 680 nm, emission
wavelength ≥ 700 nm). The images were digitized and analyzed using an Odyssey imaging
Three mice were used for each comp ound. To study the
photodynamic effect of these two compounds on the skin of the mice, a region of the skin was
illuminated with a diode laser (Biolitec Ceralas) at 680 nm operated at 0.24 W at 6 h post -
injection of these compounds. Illumination on a circu lar spot with a diameter of 1.0 cm (fluence
rate = 0.3 W cm-2) for 10 min led to a total fluence of 180 J cm–2. After 24 h, the mice were
sacrificed, and then the skin tissues were harvested. They were fixed with 4%
paraformaldehyde, dehydrated in an alcohol series, mixed with solutions of xylene and paraffin,
and then embedded in paraffin. The tissue sections were prepared by a Leica RM2235
microtome. After the H&E staining, the tissues were examined with a Nikon Eclipse Ni-E
upright fluorescence microscope. For the TUNEL staining assay, the skin tissues were dewaxed
and rehydrated in an alcohol series and then incubated with a Proteinase K solution (20 μg mL-
1) at room temperature for 30 min. After being rinsed with PBS three times, the tissue slides
were stained with 50 μL of Nucleotide Mix (a mixture of terminal deoxynucleotidyl transferase
and cyanine 3-labeled deoxyuridine triphosphate) of the one -step TUNEL assay kit (Beyotime,
Shanghai, China), and then the nuclei were stained with Hochest 33342 (10 μM) for 1 h at
room temperature. After being rinsed with PBS for three times, the tissue slides were examined
with a Zeiss LSM 880 NLO laser scanning microscope equipped with two solid-state 405 and
561 nm lasers. Hoechst 33342 was excited at 405 nm and its fluorescence was monitored at
410−500 nm, while the TUNEL staining cyanine 3 dye was excited at 561 nm and its
fluorescence was monitored at 570−620 nm.

In the case of `CCN(CC)c1ccc2nc3ccc(/N=N/c4ccc(N(C)CCCNC(=O)OC[C@@H]5[C@@H]6CCc7nnn(CC(=O)NCCCC[C@@H]8NC(=O)CNC(=O)[C@H](CCCCN)NC(=O)[C@H](CCCNC(=N)N)NC(=O)[C@H](C(C)C)NC(=O)CNC(=O)[C@H](CC(C)C)NC(=O)[C@@H]9CCCN9C(=O)[C@H](CCCCN)NC(=O)[C@@H](N)CSCc9cc(COc%10ccc(C%11=C%12C(C)=C(I)C(/C=C/c%13ccc(OCCOCCOCCOC)cc%13)=[N+]%12[B-](F)(F)n%12c(/C=C/c%13ccc(OCCOCCOCCOC)cc%13)c(I)c(C)c%12%11)cc%10)cc(c9)CSC[C@@H](C(N)=O)NC(=O)[C@H](CCCCN)NC(=O)[C@H](CCCCN)NC(=O)CNC(=O)[C@H](CC(C)C)NC(=O)[C@H](Cc9ccccc9)NC(=O)CNC(=O)[C@H](CCCCN)NC(=O)CNC8=O)c7CC[C@@H]65)cc4)cc3[n+](-c3ccccc3)c2c1` [compound 1], the “on/off ratio (fluorescence intensity at 25 h / initial intensity)” value at cathepsin B is “ca. 2.7”. For the same compound, the “appearance of irradiated skin region after 24 h” value in the data set with skin of nude mice (laser 680 nm, 0.3 W cm-2, 10 min at 6 h post-injection) is recorded as “no noticeable change”. In the data set with skin of nude mice (setting [1]), the “H&E staining of skin tissue” value is “virtually intact” and the “TUNEL assay of skin tissue” value is on record as “negligible”. In the data set with skin of nude mice (without laser irradiation), the “H&E staining of skin tissue” value is “virtually intact” and the “TUNEL assay of skin tissue (fluorescence intensity)” value is “negligible”.

Source of the values: publication PMC10080691, “Enzyme-Responsive Double-Locked Photodynamic Molecular Beacon for Targeted Photodynamic Anticancer Therapy” (Journal of the American Chemical Society, 2023).
